Results on nine substances are retold here after article PMC8330776.

This assay deals with SARS-CoV-2 S trimer (SARS-CoV-2) (UniProt P0DTC2). Description: SPR. For orientation: Surface plasmon resonance follows binding to a sensor surface in real time, without labels.
In general, Kd refers to the equilibrium constant for the complex coming apart. Read a high Kd as a looser complex. As a reminder, the koff is the first-order rate constant of dissociation. One may read the kon as the rate constant with which the complex forms. A higher kon goes with faster complex formation. “Lentil lectin derived from Lens culinaris (natural protein)”: the Kd amounted to 0.00867 µM, the koff amounted to 0.000919 s⁻¹ and the on-rate constant (kon) worked out at 106000 M⁻¹ s⁻¹.
“lectin from Galanthus nivalis (snowdrop) (natural protein)” returned a Kd of 0.00153 µM, an off-rate constant (koff) of 0.00121 s⁻¹ and an association rate constant (kon) of 792000 M⁻¹ s⁻¹.
The corresponding values for “sambucus sieboldiana lectin (natural protein)” are 0.0315 µM, 0.000886 s⁻¹ and 28100 M⁻¹ s⁻¹.
As to “erythroagglutinin PHA-E from Phaseolus vulgaris (red kidney bean) (from UniProt P05088 22-275) (natural protein)”, the equilibrium dissociation constant (Kd) is 0.16 µM, the koff was found to be 0.00331 s⁻¹ and the on-rate constant (kon) turned out to be 20700 M⁻¹ s⁻¹.
For “phytohaemagglutinin PHA-M from Phaseolus vulgaris (red kidney bean) (natural protein)” the same measures were 2.48 µM, 0.0196 s⁻¹ and 7890 M⁻¹ s⁻¹.
The corresponding values for “succinyl-concanavalin A (natural protein)” are 201 µM, 0.00148 s⁻¹ and 7.37 M⁻¹ s⁻¹.
“leucoagglutinin PHA-L from Phaseolus vulgaris (red kidney bean) (from UniProt P05087 21-272) (natural protein)” yielded a Kd of 0.0376 µM, a koff of 0.00262 s⁻¹ and a kon of 69700 M⁻¹ s⁻¹.
For “phytohaemagglutinin PHA-P from Phaseolus vulgaris (red kidney bean) (natural protein)” the same measures were 0.0325 µM, 0.00501 s⁻¹ and 154000 M⁻¹ s⁻¹.
For “lectin from Datura stramonium (jimson weed, thorn apple) (natural protein)”, the dissociation constant (Kd) turned out to be 0.000823 µM, the off-rate (koff) was determined as 0.00144 s⁻¹ and the kon stood at 1.75e+06 M⁻¹ s⁻¹.
